From patent US20030104423

Target: σ70, native, untagged (pLN12), P00579
Sequence (P00579 whole entry): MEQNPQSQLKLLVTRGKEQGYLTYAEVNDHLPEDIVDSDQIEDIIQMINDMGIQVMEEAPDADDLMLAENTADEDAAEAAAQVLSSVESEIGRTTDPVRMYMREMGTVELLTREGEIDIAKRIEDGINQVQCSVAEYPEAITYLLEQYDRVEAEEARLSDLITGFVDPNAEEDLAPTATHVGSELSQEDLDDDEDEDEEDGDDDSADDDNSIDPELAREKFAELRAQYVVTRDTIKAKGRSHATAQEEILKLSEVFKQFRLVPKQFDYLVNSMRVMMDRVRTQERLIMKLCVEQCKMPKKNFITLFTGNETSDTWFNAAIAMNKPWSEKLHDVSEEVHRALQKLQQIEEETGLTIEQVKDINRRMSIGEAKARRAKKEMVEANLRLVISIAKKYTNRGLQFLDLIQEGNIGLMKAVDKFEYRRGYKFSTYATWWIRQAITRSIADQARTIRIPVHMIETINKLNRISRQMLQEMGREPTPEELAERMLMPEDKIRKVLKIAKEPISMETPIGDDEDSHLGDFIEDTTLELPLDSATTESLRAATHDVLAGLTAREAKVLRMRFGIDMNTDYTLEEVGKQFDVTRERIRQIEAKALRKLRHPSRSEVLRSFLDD

Row | Protein | Growth at 42° C. with plasmid β′ as sole source of β′ (strain RL602)
1 | β′ mutant R297L (protein) MKDLLKFLKAQTKTEEFDAIKIALASPDMIRSWSFGEVKKPETINYRTFKPERDGLFCARIFGPVKDYECLCGKYKRLKHRGVICEKCGVEVTQTKVRRERMGHIELASPTAHIWFLKSLPSRIGLLLDMPLRDIERVLYFESYVVIEGGMTNLERQQILTEEQYLDALEEFGDEFDAKMGAEAIQALLKSMDLEQECEQLREELNETNSETKRKKLTKRIKLLEAFVQSGNKPEWMILTVLPVLPPDLRPLVPLDGGRFATSDLNDLYRRVINRNNRLKRLLDLAAPDIIVRNEKLMLQEAVDALLDNGRRGRAITGS | -
2 | β′ mutant E301P (protein) MKDLLKFLKAQTKTEEFDAIKIALASPDMIRSWSFGEVKKPETINYRTFKPERDGLFCARIFGPVKDYECLCGKYKRLKHRGVICEKCGVEVTQTKVRRERMGHIELASPTAHIWFLKSLPSRIGLLLDMPLRDIERVLYFESYVVIEGGMTNLERQQILTEEQYLDALEEFGDEFDAKMGAEAIQALLKSMDLEQECEQLREELNETNSETKRKKLTKRIKLLEAFVQSGNKPEWMILTVLPVLPPDLRPLVPLDGGRFATSDLNDLYRRVINRNNRLKRLLDLAAPDIIVRNEKRMLQPAVDALLDNGRRGRAITGS | -
3 | β′ mutant L299D (protein) MKDLLKFLKAQTKTEEFDAIKIALASPDMIRSWSFGEVKKPETINYRTFKPERDGLFCARIFGPVKDYECLCGKYKRLKHRGVICEKCGVEVTQTKVRRERMGHIELASPTAHIWFLKSLPSRIGLLLDMPLRDIERVLYFESYVVIEGGMTNLERQQILTEEQYLDALEEFGDEFDAKMGAEAIQALLKSMDLEQECEQLREELNETNSETKRKKLTKRIKLLEAFVQSGNKPEWMILTVLPVLPPDLRPLVPLDGGRFATSDLNDLYRRVINRNNRLKRLLDLAAPDIIVRNEKRMDQEAVDALLDNGRRGRAITGS | -
4 | β′ mutant N274P (protein) MKDLLKFLKAQTKTEEFDAIKIALASPDMIRSWSFGEVKKPETINYRTFKPERDGLFCARIFGPVKDYECLCGKYKRLKHRGVICEKCGVEVTQTKVRRERMGHIELASPTAHIWFLKSLPSRIGLLLDMPLRDIERVLYFESYVVIEGGMTNLERQQILTEEQYLDALEEFGDEFDAKMGAEAIQALLKSMDLEQECEQLREELNETNSETKRKKLTKRIKLLEAFVQSGNKPEWMILTVLPVLPPDLRPLVPLDGGRFATSDLNDLYRRVIPRNNRLKRLLDLAAPDIIVRNEKRMLQEAVDALLDNGRRGRAITGS | -
5 | β′ mutant E301K (protein) MKDLLKFLKAQTKTEEFDAIKIALASPDMIRSWSFGEVKKPETINYRTFKPERDGLFCARIFGPVKDYECLCGKYKRLKHRGVICEKCGVEVTQTKVRRERMGHIELASPTAHIWFLKSLPSRIGLLLDMPLRDIERVLYFESYVVIEGGMTNLERQQILTEEQYLDALEEFGDEFDAKMGAEAIQALLKSMDLEQECEQLREELNETNSETKRKKLTKRIKLLEAFVQSGNKPEWMILTVLPVLPPDLRPLVPLDGGRFATSDLNDLYRRVINRNNRLKRLLDLAAPDIIVRNEKRMLQKAVDALLDNGRRGRAITGS | +
6 | β′ mutant N274D (protein) MKDLLKFLKAQTKTEEFDAIKIALASPDMIRSWSFGEVKKPETINYRTFKPERDGLFCARIFGPVKDYECLCGKYKRLKHRGVICEKCGVEVTQTKVRRERMGHIELASPTAHIWFLKSLPSRIGLLLDMPLRDIERVLYFESYVVIEGGMTNLERQQILTEEQYLDALEEFGDEFDAKMGAEAIQALLKSMDLEQECEQLREELNETNSETKRKKLTKRIKLLEAFVQSGNKPEWMILTVLPVLPPDLRPLVPLDGGRFATSDLNDLYRRVIDRNNRLKRLLDLAAPDIIVRNEKRMLQEAVDALLDNGRRGRAITGS | +
7 | β′ mutant V272D (protein) MKDLLKFLKAQTKTEEFDAIKIALASPDMIRSWSFGEVKKPETINYRTFKPERDGLFCARIFGPVKDYECLCGKYKRLKHRGVICEKCGVEVTQTKVRRERMGHIELASPTAHIWFLKSLPSRIGLLLDMPLRDIERVLYFESYVVIEGGMTNLERQQILTEEQYLDALEEFGDEFDAKMGAEAIQALLKSMDLEQECEQLREELNETNSETKRKKLTKRIKLLEAFVQSGNKPEWMILTVLPVLPPDLRPLVPLDGGRFATSDLNDLYRRDINRNNRLKRLLDLAAPDIIVRNEKRMLQEAVDALLDNGRRGRAITGS | -
8 | β′ mutant R270L (protein) MKDLLKFLKAQTKTEEFDAIKIALASPDMIRSWSFGEVKKPETINYRTFKPERDGLFCARIFGPVKDYECLCGKYKRLKHRGVICEKCGVEVTQTKVRRERMGHIELASPTAHIWFLKSLPSRIGLLLDMPLRDIERVLYFESYVVIEGGMTNLERQQILTEEQYLDALEEFGDEFDAKMGAEAIQALLKSMDLEQECEQLREELNETNSETKRKKLTKRIKLLEAFVQSGNKPEWMILTVLPVLPPDLRPLVPLDGGRFATSDLNDLYLRVINRNNRLKRLLDLAAPDIIVRNEKRMLQEAVDALLDNGRRGRAITGS | +
